Measured values reported in the supplement of paper PMC9112550, “Optimization of the antimicrobial peptide Bac7 by deep mutational scanning” (BMC Biology, 2022).

Tested on: Escherichia coli TOP10
Assay: shrunken log2 fold change of peptide-encoding DNA abundance (4.5 h post-induction vs induction); higher = less antimicrobial activity (less host growth inhibition)
Conditions: time post-induction: 4.5 h; library: site-saturation at positions 5, 18, 19, 20
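Also: peptides expressed intracellularly from a pBAD plasmid library in pooled LB shake-flask culture, induced with 0.3% L-arabinose, DNA abundance read by NGS, three biological replicates, DESeq2 with apeglm shrinkage.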

Sequence | shrunken log2 fold change
RRIRTRPPRLPRPRPRPIYYPRP | -0.818
RRIRDRPPRLPRPRPRPNINPRP | -0.35
RRIRHRPPRLPRPRPRPFAPPRP | -0.0777
RRIRLRPPRLPRPRPRPSHAPRP | 0.212
RRIRFRPPRLPRPRPRPFHFPRP | -0.532
RRIRCRPPRLPRPRPRPEVQPRP | 0.267
RRIRFRPPRLPRPRPRPFDDPRP | -0.488
RRIRSRPPRLPRPRPRPILDPRP | -0.152
RRIRMRPPRLPRPRPRPRAIPRP | 0.52
RRIRARPPRLPRPRPRPHMDPRP | 0.281
RRIRQRPPRLPRPRPRPKVTPRP | 0.0375
RRIRQRPPRLPRPRPRPFRAPRP | 0.0134
RRIRLRPPRLPRPRPRPYAYPRP | -0.0124
RRIRSRPPRLPRPRPRPPASPRP | 0.694
RRIRTRPPRLPRPRPRPENVPRP | -0.0181
RRIRCRPPRLPRPRPRPVKTPRP | -0.132
RRIRARPPRLPRPRPRPLTFPRP | -0.203
RRIRKRPPRLPRPRPRPQDTPRP | -0.0445
RRIRDRPPRLPRPRPRPKQIPRP | -0.0135
RRIRNRPPRLPRPRPRPRYDPRP | -0.494
RRIRQRPPRLPRPRPRPPWIPRP | -0.145
RRIRPRPPRLPRPRPRPGYEPRP | -0.172
RRIRTRPPRLPRPRPRPPLCPRP | 0.0694
RRIRKRPPRLPRPRPRPQGEPRP | -0.000844
RRIRYRPPRLPRPRPRPHKPPRP | -0.171

Sequence | shrunken log2 fold change
RRIRGRPPRLPRPRPRPEVYPRP | 0.346
RRIRLRPPRLPRPRPRPKGYPRP | -0.146
RRIRFRPPRLPRPRPRPHDAPRP | 0.293
RRIRNRPPRLPRPRPRPVHMPRP | -0.0948
RRIRLRPPRLPRPRPRPVDQPRP | 0.194
RRIRMRPPRLPRPRPRPWYLPRP | -0.0736
RRIRKRPPRLPRPRPRPAFYPRP | 0.114
RRIRVRPPRLPRPRPRPNDNPRP | -0.481
RRIRKRPPRLPRPRPRPFFPPRP | 0.967
RRIRPRPPRLPRPRPRPTPKPRP | 0.528
RRIRIRPPRLPRPRPRPQTWPRP | -0.169
RRIRHRPPRLPRPRPRPDDRPRP | -0.144
RRIRIRPPRLPRPRPRPCHNPRP | -0.293
RRIRKRPPRLPRPRPRPNVCPRP | -0.144
RRIRMRPPRLPRPRPRPEELPRP | 0.123
RRIRHRPPRLPRPRPRPEKVPRP | -0.017
RRIRDRPPRLPRPRPRPFQKPRP | 0.158
RRIRSRPPRLPRPRPRPMSRPRP | 0.0278
RRIRTRPPRLPRPRPRPGQKPRP | 0.0923
RRIRRRPPRLPRPRPRPGAWPRP | -9.3e-05
RRIRGRPPRLPRPRPRPCAPPRP | 0.826
RRIRMRPPRLPRPRPRPKQVPRP | 0.0554
RRIRIRPPRLPRPRPRPEHSPRP | 0.0398
RRIRFRPPRLPRPRPRPRNQPRP | -0.114
RRIRPRPPRLPRPRPRPFDSPRP | -0.0336

Sequence | shrunken log2 fold change
RRIRDRPPRLPRPRPRPYTNPRP | -0.647
RRIRSRPPRLPRPRPRPFEEPRP | -0.345
RRIRHRPPRLPRPRPRPGSNPRP | 0.0117
RRIRLRPPRLPRPRPRPEIPPRP | -0.0569
RRIRVRPPRLPRPRPRPQHCPRP | 0.0856
RRIRPRPPRLPRPRPRPNEGPRP | 0.0293
RRIRKRPPRLPRPRPRPNDFPRP | -0.0772
RRIRNRPPRLPRPRPRPGGLPRP | -0.13
RRIRDRPPRLPRPRPRPGAKPRP | 0.592
RRIRDRPPRLPRPRPRPRADPRP | 0.65
RRIRHRPPRLPRPRPRPNRDPRP | -0.0852
RRIRLRPPRLPRPRPRPMRWPRP | 0.278
RRIRMRPPRLPRPRPRPRQIPRP | 1.19
RRIRRRPPRLPRPRPRPKPDPRP | 0.493
RRIRQRPPRLPRPRPRPMDFPRP | 0.015
RRIRCRPPRLPRPRPRPGVMPRP | 0.0691
RRIRFRPPRLPRPRPRPCKIPRP | -0.0538
RRIRYRPPRLPRPRPRPHGVPRP | -0.261
RRIRKRPPRLPRPRPRPLDEPRP | 0.0161
RRIRMRPPRLPRPRPRPDTNPRP | 1.3
RRIRPRPPRLPRPRPRPMNHPRP | -0.11
RRIRNRPPRLPRPRPRPAMGPRP | 0.288
RRIRFRPPRLPRPRPRPMTHPRP | -0.401
RRIRNRPPRLPRPRPRPNFLPRP | -0.0488
RRIRERPPRLPRPRPRPSCMPRP | -0.416

Sequence | shrunken log2 fold change
RRIRVRPPRLPRPRPRPDILPRP | 0.3
RRIRARPPRLPRPRPRPKLYPRP | 0.0318
RRIRQRPPRLPRPRPRPTGRPRP | 0.146
RRIRCRPPRLPRPRPRPWHLPRP | -0.221
RRIRHRPPRLPRPRPRPIQWPRP | -0.01
RRIRERPPRLPRPRPRPDLGPRP | -0.0853
RRIRPRPPRLPRPRPRPNDWPRP | 0.0287
RRIRLRPPRLPRPRPRPDHEPRP | 0.0172
RRIRDRPPRLPRPRPRPAQIPRP | 0.263
RRIRNRPPRLPRPRPRPPQLPRP | 0.131
RRIRQRPPRLPRPRPRPSPMPRP | 0.0696
RRIRKRPPRLPRPRPRPAMCPRP | 0.059
RRIRYRPPRLPRPRPRPFCPPRP | -0.878
RRIRVRPPRLPRPRPRPFSRPRP | -0.0787
RRIRGRPPRLPRPRPRPCNMPRP | -0.0796
RRIRNRPPRLPRPRPRPAMEPRP | 0.243
RRIRSRPPRLPRPRPRPYMFPRP | -0.648
RRIRGRPPRLPRPRPRPQCDPRP | 0.479
RRIRFRPPRLPRPRPRPLSVPRP | -0.271
RRIRFRPPRLPRPRPRPKMEPRP | -0.028
RRIRLRPPRLPRPRPRPAMDPRP | 0.113
RRIRDRPPRLPRPRPRPSYNPRP | -0.285
RRIRWRPPRLPRPRPRPYRGPRP | -0.0785
RRIRFRPPRLPRPRPRPDRSPRP | 0.0602
RRIRERPPRLPRPRPRPCMNPRP | -0.341

Sequence | shrunken log2 fold change
RRIRGRPPRLPRPRPRPWWTPRP | -0.124
RRIRGRPPRLPRPRPRPCYAPRP | 0.128
RRIRMRPPRLPRPRPRPNVEPRP | 0.0231
RRIRPRPPRLPRPRPRPQKTPRP | -0.0227
RRIRIRPPRLPRPRPRPSKCPRP | -0.788
RRIRDRPPRLPRPRPRPDDMPRP | 0.155
RRIRKRPPRLPRPRPRPEVEPRP | 2.8
RRIRPRPPRLPRPRPRPELGPRP | 0.24
RRIRLRPPRLPRPRPRPDMPPRP | -0.269
RRIRVRPPRLPRPRPRPREKPRP | 0.179
RRIRHRPPRLPRPRPRPNRAPRP | -0.0865
RRIRARPPRLPRPRPRPMGHPRP | 0.062
RRIRCRPPRLPRPRPRPDPLPRP | 0.00869
RRIRTRPPRLPRPRPRPNALPRP | -0.0225
RRIRSRPPRLPRPRPRPWFWPRP | 0.326
RRIRYRPPRLPRPRPRPMNEPRP | -0.103
RRIRCRPPRLPRPRPRPQGSPRP | 0.0401
RRIRTRPPRLPRPRPRPRGKPRP | 0.259
RRIRWRPPRLPRPRPRPNQQPRP | -0.0465
RRIRIRPPRLPRPRPRPWHIPRP | 0.0542
RRIRFRPPRLPRPRPRPVHAPRP | 0.184
RRIRNRPPRLPRPRPRPDEMPRP | -0.00822
RRIRHRPPRLPRPRPRPVSKPRP | -0.0396
RRIRVRPPRLPRPRPRPIEYPRP | -0.05
RRIRRRPPRLPRPRPRPCCHPRP | -0.345
